Results as given in patent US20240207433A1.

Biological target: human alpha-enolase protein (ENO-1) (human) (UniProt P06733)
Assay: cell-based or functional assay

Sequence of UniProt P06733 (P06733 2-434): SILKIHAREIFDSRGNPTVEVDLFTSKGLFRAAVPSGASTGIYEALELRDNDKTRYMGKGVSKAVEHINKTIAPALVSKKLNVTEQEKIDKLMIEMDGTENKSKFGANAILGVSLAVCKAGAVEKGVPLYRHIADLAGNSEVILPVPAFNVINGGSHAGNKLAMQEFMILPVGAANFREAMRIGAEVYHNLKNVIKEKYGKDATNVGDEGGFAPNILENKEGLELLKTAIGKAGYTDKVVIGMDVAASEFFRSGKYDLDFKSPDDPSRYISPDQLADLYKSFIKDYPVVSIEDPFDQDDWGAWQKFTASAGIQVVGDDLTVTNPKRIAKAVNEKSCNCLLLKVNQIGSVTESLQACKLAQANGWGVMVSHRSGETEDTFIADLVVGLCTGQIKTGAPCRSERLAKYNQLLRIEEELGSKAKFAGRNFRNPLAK

Substance: HuL001-SMCC-DM1
- IC50 of cytotoxicity (CCK-8), A549, IL-6: 11.2 nM
- IC50 of cytotoxicity (CCK-8), A549, MCP-1: 12.1 nM
- IC50 of cytotoxicity (CCK-8), A549, TGF-β: 8.2 nM
- IC50 of cytotoxicity (CCK-8), A549, untreated: 56 nM
- IC50 of cytotoxicity (CCK-8), DB, IL-6: 5.8 nM
- IC50 of cytotoxicity (CCK-8), DB, MCP-1: 4.1 nM
- IC50 of cytotoxicity (CCK-8), DB, TGF-β: 5.1 nM
- IC50 of cytotoxicity (CCK-8), DB, untreated: 5.5 nM
- IC50 of cytotoxicity (CCK-8), GA-10, IL-6: 26.6 nM
- IC50 of cytotoxicity (CCK-8), GA-10, MCP-1: 25.6 nM
- IC50 of cytotoxicity (CCK-8), GA-10, TGF-β: 22.8 nM
- IC50 of cytotoxicity (CCK-8), GA-10, untreated: 37.8 nM
- IC50 of cytotoxicity (CCK-8), HT, IL-6: 6.6 nM
- IC50 of cytotoxicity (CCK-8), HT, MCP-1: 7.6 nM
- IC50 of cytotoxicity (CCK-8), HT, TGF-β: 6.1 nM
- IC50 of cytotoxicity (CCK-8), HT, untreated: 7.3 nM
- IC50 of cytotoxicity (CCK-8), MCF-7, IL-6: 38.6 nM
- IC50 of cytotoxicity (CCK-8), MCF-7, MCP-1: 36.2 nM
- IC50 of cytotoxicity (CCK-8), MCF-7, TGF-β: 53.5 nM
- IC50 of cytotoxicity (CCK-8), MCF-7, untreated: 74.9 nM
- IC50 of cytotoxicity (CCK-8), MDA-MB-175, IL-6: 45.1 nM
- IC50 of cytotoxicity (CCK-8), MDA-MB-175, MCP-1: 40.5 nM
- IC50 of cytotoxicity (CCK-8), MDA-MB-175, TGF-β: 38.3 nM
- IC50 of cytotoxicity (CCK-8), MDA-MB-175, untreated: 76.4 nM
- IC50 of cytotoxicity (CCK-8), MDA-MB-231, IL-6: 34.6 nM
- IC50 of cytotoxicity (CCK-8), MDA-MB-231, MCP-1: 22.4 nM
- IC50 of cytotoxicity (CCK-8), MDA-MB-231, TGF-β: 24.2 nM
- IC50 of cytotoxicity (CCK-8), MDA-MB-231, untreated: 69 nM
- IC50 of cytotoxicity (CCK-8), MDA-MB-453, IL-6: 22.8 nM
- IC50 of cytotoxicity (CCK-8), MDA-MB-453, MCP-1: 24.7 nM
- IC50 of cytotoxicity (CCK-8), MDA-MB-453, TGF-β: 16.6 nM
- IC50 of cytotoxicity (CCK-8), MDA-MB-453, untreated: 39.8 nM
- IC50 of cytotoxicity (CCK-8), PANC-1, IL-6: 134 nM
- IC50 of cytotoxicity (CCK-8), PANC-1, MCP-1: 110 nM
- IC50 of cytotoxicity (CCK-8), PANC-1, TGF-β: 116 nM
- IC50 of cytotoxicity (CCK-8), PANC-1, untreated: 174 nM
- IC50 of cytotoxicity (CCK-8), Raji, IL-6: 17.1 nM
- IC50 of cytotoxicity (CCK-8), Raji, MCP-1: 21.7 nM
- IC50 of cytotoxicity (CCK-8), Raji, TGF-β: 18.6 nM
- IC50 of cytotoxicity (CCK-8), Raji, untreated: 32.2 nM
- IC50 of cytotoxicity (CCK-8), SU-DHL-4, IL-6: 8.3 nM
- IC50 of cytotoxicity (CCK-8), SU-DHL-4, MCP-1: 7.6 nM
- IC50 of cytotoxicity (CCK-8), SU-DHL-4, TGF-β: 7.4 nM
- IC50 of cytotoxicity (CCK-8), SU-DHL-4, untreated: 7.65 nM
- IC50 of cytotoxicity (CCK-8), Toledo, IL-6: 11.4 nM
- IC50 of cytotoxicity (CCK-8), Toledo, MCP-1: 8.1 nM
- IC50 of cytotoxicity (CCK-8), Toledo, TGF-β: 9.8 nM
- IC50 of cytotoxicity (CCK-8), Toledo, untreated: 8 nM
- IC50 of cytotoxicity (CCK-8), U937, IL-6: 7.1 nM
- IC50 of cytotoxicity (CCK-8), U937, MCP-1: 9.7 nM
- IC50 of cytotoxicity (CCK-8), U937, TGF-β: 7.5 nM
- IC50 of cytotoxicity (CCK-8), U937, untreated: 75 nM
